In patent US20220332804A1 (CSL INNOVATION, published 2022) one finds Fold diff data, which are given here for one molecule.

Residue numbers refer to the chain shown, from its start.

Assay in all cases: SPR, KD relative to WT C2;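 note: biacore SPR at 37 °C, anti-C2 mAbs captured via immobilised goat anti-human IgG, C2 alanine or serine surface mutants as analytes, 1:1 model fitted, double-referenced sensograms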
One experiment addresses T1, human C2 K711A (human, UniProt P06681 21-752).
T1 sequence: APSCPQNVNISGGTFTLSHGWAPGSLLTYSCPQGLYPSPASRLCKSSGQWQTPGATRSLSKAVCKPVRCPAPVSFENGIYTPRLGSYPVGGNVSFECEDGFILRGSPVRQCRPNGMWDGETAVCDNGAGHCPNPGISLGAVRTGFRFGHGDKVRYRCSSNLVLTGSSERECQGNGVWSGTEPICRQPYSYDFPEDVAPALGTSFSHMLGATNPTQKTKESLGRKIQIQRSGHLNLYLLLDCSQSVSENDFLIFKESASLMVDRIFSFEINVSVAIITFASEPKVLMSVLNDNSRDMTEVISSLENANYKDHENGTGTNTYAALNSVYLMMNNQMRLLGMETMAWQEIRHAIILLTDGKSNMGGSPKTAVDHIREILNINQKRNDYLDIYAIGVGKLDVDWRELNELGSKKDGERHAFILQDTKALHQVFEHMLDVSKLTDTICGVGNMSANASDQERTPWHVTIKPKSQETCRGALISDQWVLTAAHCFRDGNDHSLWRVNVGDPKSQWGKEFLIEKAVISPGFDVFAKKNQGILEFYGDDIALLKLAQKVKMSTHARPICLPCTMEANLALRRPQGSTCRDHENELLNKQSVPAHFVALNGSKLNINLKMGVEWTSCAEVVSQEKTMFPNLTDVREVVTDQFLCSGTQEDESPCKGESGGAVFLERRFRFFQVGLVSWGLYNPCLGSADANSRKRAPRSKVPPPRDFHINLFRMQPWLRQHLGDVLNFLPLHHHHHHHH

The target in the next experiment is T2, human C2 D454A (human, UniProt P06681 21-752).
T2 sequence: T1 sequence with D434A, A691K

The next experiment addresses T3, human C2 N471A (human, UniProt P06681 21-752).
T3 sequence: T1 sequence with N451A, A691K

In another experiment the target is T4, human C2 E686A (human, UniProt P06681 21-752).
T4 sequence: T1 sequence with E666A, A691K

B1: RF16-226 (antibody, human IgG4 S228P, lambda)
heavy: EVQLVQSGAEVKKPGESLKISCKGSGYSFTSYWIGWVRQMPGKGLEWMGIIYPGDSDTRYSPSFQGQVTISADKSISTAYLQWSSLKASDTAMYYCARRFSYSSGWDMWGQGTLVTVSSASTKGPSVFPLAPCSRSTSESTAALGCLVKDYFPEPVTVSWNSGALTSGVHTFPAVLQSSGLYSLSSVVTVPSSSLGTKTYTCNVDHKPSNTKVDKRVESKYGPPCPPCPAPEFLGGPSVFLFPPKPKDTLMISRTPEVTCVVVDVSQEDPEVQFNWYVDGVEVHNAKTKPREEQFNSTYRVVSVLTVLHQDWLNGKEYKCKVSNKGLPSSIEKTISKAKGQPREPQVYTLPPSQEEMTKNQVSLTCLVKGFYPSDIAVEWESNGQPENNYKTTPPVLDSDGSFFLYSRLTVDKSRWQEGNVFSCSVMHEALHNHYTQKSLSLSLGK
light: SYELTQPPSVSVSPGQTARITCSGDALTSKYVAWYQQKSGLAPLLVIYEDTRRPSGIPAKFSGSSSGSVATLTISGAHGDDEADYYCYSTDASGHQRVFGGGTKLTVLSQPKAAPSVTLFPPSSEELQANKATLVCLISDFYPGAVTVAWKADGSPVKAGVETTKPSKQSNNKYAASSYLSLTPEQWKSHRSYSCQVTHEGSTVEKTVAPTECS
notes: pH-dependent anti-C2 antibody from a phage display library; also called WT
In the case of B1, the Fold diff with human C2 K711A was 5 fold; with human C2 D454A it was 25 fold; with human C2 N471A it was 1 fold; with human C2 E686A, 5 fold.
